Source: the supplement of paper PMC9732359
± gives the uncertainty stated by the source.

Assay: protein stability index of a GFP-peptide fusion (yeast GPS) (PSI 1-4); higher = more stable; sorted into four equal gates, so the index is relative within each strain
How it was run: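 Tiled yeast protein peptides of 17 residues were each joined downstream of GFP, on plasmids that also express Cherry. The pooled library was maintained in yeast, and mid-log cultures in leucine-free medium were sorted into four equal gates on the GFP/Cherry ratio. Plasmids from every gate were amplified by PCR and sequenced on Illumina, with barcodes linking reads to strains. The protein stability index of a peptide is its gate-number-weighted read frequency summed over the gates.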

Sequence: PTVNRVPNYEVSEKAFL [RPN7]
- protein stability index (doa10∆): 1.14 ± 0.12
- protein stability index (pdr5∆): 1.68 ± 0.1
- protein stability index (san1∆): 1.79 ± 0.22
- protein stability index (ubr1∆): 1.18 ± 0.17

Sequence: MEFSNLYKEFFNEKFPS [NUT1]
- protein stability index (pdr5∆): 3.17 ± 0.15
- protein stability index (san1∆): 2.98 ± 0.069
- protein stability index (ubr1∆): 3.04 ± 0.1

Sequence: LTMANLPSWSLGKWYSK [ARP7]
- protein stability index (doa10∆): 3.17 ± 0.15
- protein stability index (pdr5∆): 3.28 ± 0.11
- protein stability index (san1∆): 2.88 ± 0.17
- protein stability index (ubr1∆): 2.85 ± 0.19

Sequence: RRLLNLYNDNNKNNNNR [SWI1]
- protein stability index (doa10∆): 3.11 ± 0.12
- protein stability index (pdr5∆): 2.86 ± 0.089
- protein stability index (san1∆): 2.22 ± 0.16
- protein stability index (ubr1∆): 2.99 ± 0.058

Sequence: GHLNGHTPTIASYLTPL [SSN2]
- protein stability index (doa10∆): 2.24 ± 0.039
- protein stability index (pdr5∆): 2.74 ± 0.043
- protein stability index (san1∆): 2.62 ± 0.044
- protein stability index (ubr1∆): 2.54 ± 0.035

Sequence: AVLNVSPVYDVDPRIIN [NUT1]
- protein stability index (doa10∆): 2.2 ± 0.078
- protein stability index (pdr5∆): 2.29 ± 0.064
- protein stability index (san1∆): 1.82 ± 0.091
- protein stability index (ubr1∆): 2.17 ± 0.06

Sequence: LQKSSKSMITSEGEQKS [YAR002W/NUP60]
- protein stability index (doa10∆): 2.84 ± 0.044
- protein stability index (pdr5∆): 2.97 ± 0.047
- protein stability index (san1∆): 2.85 ± 0.04
- protein stability index (ubr1∆): 3.06 ± 0.046

Sequence: NVISSKDWELEARFWHL [YDL116W/NUP84]
- protein stability index (doa10∆): 3.46 ± 0.096
- protein stability index (pdr5∆): 3.32 ± 0.062
- protein stability index (san1∆): 3.43 ± 0.066
- protein stability index (ubr1∆): 3.25 ± 0.068

Sequence: GHPMTKSVYETPKITAA [SEC65]
- protein stability index (doa10∆): 2.83 ± 0.17
- protein stability index (pdr5∆): 2.63 ± 0.084
- protein stability index (san1∆): 2.03 ± 0.24
- protein stability index (ubr1∆): 1.91 ± 0.062

Sequence: LLNAADRDALSGWGAVV [PUP3]
- protein stability index (doa10∆): 3.17 ± 0.12
- protein stability index (pdr5∆): 3.2 ± 0.099
- protein stability index (san1∆): 3.03 ± 0.081
- protein stability index (ubr1∆): 3.09 ± 0.099

Sequence: ETIENVKLQMIKFGGLI [ECM29]
- protein stability index (doa10∆): 3.53 ± 0.1
- protein stability index (pdr5∆): 3.37 ± 0.17
- protein stability index (san1∆): 3.18 ± 0.11
- protein stability index (ubr1∆): 3.26 ± 0.07

Sequence: ERELISNIEQTESLRVE [YIL149C/MLP2]
- protein stability index (doa10∆): 3.34 ± 0.063
- protein stability index (pdr5∆): 3.47 ± 0.078
- protein stability index (san1∆): 3.18 ± 0.041
- protein stability index (ubr1∆): 3.37 ± 0.07

Sequence: YRMKGGRVTFIPLNRLS [SMC3]
- protein stability index (doa10∆): 1.46 ± 0.14
- protein stability index (pdr5∆): 1.15 ± 0.099
- protein stability index (san1∆): 1.07 ± 0.24
- protein stability index (ubr1∆): 1.36 ± 0.13

Sequence: QLGYGKFLILNENPINK [NUT1]
- protein stability index (doa10∆): 2.92 ± 0.12
- protein stability index (pdr5∆): 2.53 ± 0.12
- protein stability index (san1∆): 2.71 ± 0.077
- protein stability index (ubr1∆): 2.84 ± 0.13

Sequence: ECKGCDNKIDIYQIHIP [RPB2]
- protein stability index (doa10∆): 3 ± 0.044
- protein stability index (pdr5∆): 2.87 ± 0.048
- protein stability index (san1∆): 3.02 ± 0.035
- protein stability index (ubr1∆): 2.54 ± 0.032

Sequence: KQLTLLRSKLFQFKLLQ [SMC4]
- protein stability index (doa10∆): 1.93 ± 0.051
- protein stability index (pdr5∆): 1.88 ± 0.048
- protein stability index (san1∆): 1.69 ± 0.064
- protein stability index (ubr1∆): 2.34 ± 0.038

Sequence: MVTENPQRLTVLRLATN [MCD1]
- protein stability index (doa10∆): 2.25 ± 0.069
- protein stability index (pdr5∆): 2.32 ± 0.056
- protein stability index (san1∆): 2.3 ± 0.062
- protein stability index (ubr1∆): 2.38 ± 0.051

Sequence: TLETIEIHPITFPPEVL [RRP43]
- protein stability index (doa10∆): 1.9 ± 0.045
- protein stability index (pdr5∆): 2.25 ± 0.045
- protein stability index (san1∆): 2.3 ± 0.06
- protein stability index (ubr1∆): 2.01 ± 0.035

Sequence: QPQALQKSGRPVKSIRA [RPO21]
- protein stability index (doa10∆): 2.62 ± 0.065
- protein stability index (pdr5∆): 2.29 ± 0.069
- protein stability index (san1∆): 2.36 ± 0.083
- protein stability index (ubr1∆): 2.17 ± 0.037

Sequence: PVEKVQRIAKNDPEYMD [DLS1]
- protein stability index (doa10∆): 2.75 ± 0.27
- protein stability index (pdr5∆): 3.29 ± 0.14
- protein stability index (san1∆): 3.17 ± 0.12
- protein stability index (ubr1∆): 3.31 ± 0.087

Sequence: KRTICKKCHRLLWTPKK [RPR2]
- protein stability index (doa10∆): 2.42 ± 0.051
- protein stability index (pdr5∆): 2.45 ± 0.05
- protein stability index (san1∆): 2.81 ± 0.048
- protein stability index (ubr1∆): 2.26 ± 0.037

Sequence: EEELFQEMIEISNVIKP [SRP54]
- protein stability index (doa10∆): 3.04 ± 0.077
- protein stability index (pdr5∆): 3.28 ± 0.066
- protein stability index (san1∆): 3.34 ± 0.064
- protein stability index (ubr1∆): 3.37 ± 0.13

Sequence: QELEKRMPMDFKGVIVK [PRE1]
- protein stability index (doa10∆): 1.77 ± 0.18
- protein stability index (san1∆): 2.8 ± 0.12
- protein stability index (ubr1∆): 1.81 ± 0.071

Sequence: SVRRSGALDVEGLCIVA [RRP45]
- protein stability index (doa10∆): 2.47 ± 0.15
- protein stability index (pdr5∆): 3.06 ± 0.11
- protein stability index (san1∆): 3 ± 0.11
- protein stability index (ubr1∆): 2.83 ± 0.18

Sequence: LAFNYITYDKQEPSASQ [SRP68]
- protein stability index (doa10∆): 3.19 ± 0.048
- protein stability index (pdr5∆): 3.15 ± 0.056
- protein stability index (san1∆): 2.97 ± 0.056
- protein stability index (ubr1∆): 2.93 ± 0.037

Sequence: LKNKYESYDAALSLHRE [FAS2]
- protein stability index (doa10∆): 3.181 ± 0.019
- protein stability index (pdr5∆): 3.134 ± 0.016
- protein stability index (san1∆): 3.083 ± 0.014
- protein stability index (ubr1∆): 3.034 ± 0.014

Sequence: ADLQGSEDHSFRKIKLR [RPS1A]
- protein stability index (doa10∆): 3.17 ± 0.051
- protein stability index (pdr5∆): 3.13 ± 0.061
- protein stability index (san1∆): 3.06 ± 0.047
- protein stability index (ubr1∆): 3.15 ± 0.048

Sequence: NSKVNKLNIETMRKISS [DSN1]
- protein stability index (doa10∆): 2.5 ± 0.17
- protein stability index (pdr5∆): 2.43 ± 0.11
- protein stability index (san1∆): 2.13 ± 0.12
- protein stability index (ubr1∆): 2.95 ± 0.07

Sequence: EVLVTPGLEFLDDTTIP [MCD1]
- protein stability index (doa10∆): 2.02 ± 0.057
- protein stability index (pdr5∆): 2.98 ± 0.059
- protein stability index (san1∆): 3.25 ± 0.037
- protein stability index (ubr1∆): 3.08 ± 0.059

Sequence: KKRSQAKMNAKTDFAKI [RPC82]
- protein stability index (doa10∆): 3.42 ± 0.094
- protein stability index (pdr5∆): 3.23 ± 0.12
- protein stability index (san1∆): 3.22 ± 0.076
- protein stability index (ubr1∆): 3.37 ± 0.059

Sequence: KKQQAALTNELNELKAI [YIL149C/MLP2]
- protein stability index (doa10∆): 1.42 ± 0.052
- protein stability index (pdr5∆): 1.86 ± 0.07
- protein stability index (san1∆): 1.83 ± 0.092
- protein stability index (ubr1∆): 1.55 ± 0.051

Sequence: TKMDGHARGGGAISAVA [SRP54]
- protein stability index (san1∆): 3.51 ± 0.14
- protein stability index (ubr1∆): 3.62 ± 0.26

Sequence: FITTLLKSLYSFFNISP [SIN4]
- protein stability index (doa10∆): 2.26 ± 0.042
- protein stability index (pdr5∆): 1.5 ± 0.037
- protein stability index (san1∆): 1.46 ± 0.057
- protein stability index (ubr1∆): 1.53 ± 0.034

Sequence: PLLAQLFKTLFKKLTKD [RPB2]
- protein stability index (doa10∆): 2.65 ± 0.04
- protein stability index (pdr5∆): 1.29 ± 0.039
- protein stability index (san1∆): 1.18 ± 0.092
- protein stability index (ubr1∆): 1.16 ± 0.03

Sequence: VSKPAFSFGAKANEKKE [YJL041W/NSP1]
- protein stability index (doa10∆): 3.07 ± 0.15
- protein stability index (pdr5∆): 2.78 ± 0.24
- protein stability index (san1∆): 2.95 ± 0.11
- protein stability index (ubr1∆): 2.94 ± 0.16

Sequence: WLIEGKLYVDAVHSIIA [YDL116W/NUP84]
- protein stability index (doa10∆): 1.2 ± 0.18
- protein stability index (pdr5∆): 1.32 ± 0.15
- protein stability index (san1∆): 1.07 ± 0.28
- protein stability index (ubr1∆): 1.1 ± 0.095

Sequence: PLLSKKERLVRDKKEKK [SMB1]
- protein stability index (doa10∆): 3.37 ± 0.24
- protein stability index (pdr5∆): 3 ± 0.11
- protein stability index (san1∆): 2.72 ± 0.18
- protein stability index (ubr1∆): 3.15 ± 0.17

Sequence: EEGYSGVEVRVTPTKTE [RPS3]
- protein stability index (doa10∆): 2.18 ± 0.16
- protein stability index (pdr5∆): 3.15 ± 0.11
- protein stability index (san1∆): 2.88 ± 0.091
- protein stability index (ubr1∆): 3.11 ± 0.08

Sequence: EMERIVKNLTKYLSDIM [SRP68]
- protein stability index (doa10∆): 2.76 ± 0.25
- protein stability index (pdr5∆): 2.53 ± 0.099
- protein stability index (ubr1∆): 2.06 ± 0.074

Sequence: AFKSVVSTETFEQPSQR [RPL27A]
- protein stability index (doa10∆): 2.88 ± 0.062
- protein stability index (pdr5∆): 2.82 ± 0.059
- protein stability index (san1∆): 2.71 ± 0.053
- protein stability index (ubr1∆): 3.11 ± 0.067

Sequence: MNIPQRQFSNEEVNRCY [SNF2]
- protein stability index (doa10∆): 2.44 ± 0.1
- protein stability index (pdr5∆): 3 ± 0.14
- protein stability index (san1∆): 2.96 ± 0.26
- protein stability index (ubr1∆): 3 ± 0.065

Sequence: AAATFPIAQPATDVEAR [RPL13A]
- protein stability index (doa10∆): 2.65 ± 0.05
- protein stability index (pdr5∆): 2.38 ± 0.042
- protein stability index (san1∆): 2.71 ± 0.066
- protein stability index (ubr1∆): 2.29 ± 0.04

Sequence: VLRLNAIPLLKVLRKFR [NUT1]
- protein stability index (doa10∆): 1.98 ± 0.052
- protein stability index (pdr5∆): 2.21 ± 0.054
- protein stability index (san1∆): 2.06 ± 0.084
- protein stability index (ubr1∆): 2.3 ± 0.038

Sequence: LRGCKFLQSVDITGIRD [GRR1]
- protein stability index (doa10∆): 1.72 ± 0.034
- protein stability index (pdr5∆): 2.03 ± 0.046
- protein stability index (san1∆): 1.89 ± 0.053
- protein stability index (ubr1∆): 1.83 ± 0.04

Sequence: INDNNTRPYILERARDV [YCG1]
- protein stability index (doa10∆): 3.6 ± 0.23

Sequence: VEVLLVNYNSDMIKCFL [NUT1]
- protein stability index (doa10∆): 1.58 ± 0.1
- protein stability index (pdr5∆): 1.74 ± 0.077
- protein stability index (san1∆): 1.51 ± 0.17
- protein stability index (ubr1∆): 2.02 ± 0.13

Sequence: AESFTDEADSSMTEASV [SNF2]
- protein stability index (doa10∆): 3.36 ± 0.094
- protein stability index (pdr5∆): 3.19 ± 0.092
- protein stability index (san1∆): 3.39 ± 0.05
- protein stability index (ubr1∆): 3.09 ± 0.089

Sequence: QLLDTSNQRFKDLQWLE [SIN4]
- protein stability index (doa10∆): 3.02 ± 0.066
- protein stability index (pdr5∆): 2.96 ± 0.076
- protein stability index (san1∆): 2.88 ± 0.06
- protein stability index (ubr1∆): 2.91 ± 0.043
